Measurements published in patent US20120316071A1 (published 2012).
One block for each binder: values may come before it.

Tests used:
[1] = target: T1, rHuman Notch-1/Fc Chimera, CF (R&D Systems Cat#3647-TK) (human); experiment: ECL Multispot (MSD), antigen spotted on plate, Fab in solution; blank spot 292
T1 chain: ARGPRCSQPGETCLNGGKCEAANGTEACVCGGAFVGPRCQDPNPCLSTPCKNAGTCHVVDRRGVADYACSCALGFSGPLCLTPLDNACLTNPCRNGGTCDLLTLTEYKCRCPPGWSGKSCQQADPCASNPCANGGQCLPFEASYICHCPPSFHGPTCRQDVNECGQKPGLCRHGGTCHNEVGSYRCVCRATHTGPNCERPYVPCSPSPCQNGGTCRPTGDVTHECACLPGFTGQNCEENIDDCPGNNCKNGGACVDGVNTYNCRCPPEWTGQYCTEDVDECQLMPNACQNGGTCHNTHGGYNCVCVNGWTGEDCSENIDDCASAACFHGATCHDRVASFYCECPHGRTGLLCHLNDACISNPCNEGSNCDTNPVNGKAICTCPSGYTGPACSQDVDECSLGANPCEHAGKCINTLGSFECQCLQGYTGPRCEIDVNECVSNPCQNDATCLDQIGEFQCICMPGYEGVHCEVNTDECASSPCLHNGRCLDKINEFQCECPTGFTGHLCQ

[2] = target: T2, rHuman P-Cadherin/Fc Chimera, CF (R&D Systems Cat#861-PC) (human, UniProt P22223 108-654); experiment: as above
[3] = target: T3, rHuman Erythropoietin R/Fc Chimera, CF (R&D Systems Cat#963-ER) (human, UniProt P19235 25-250); experiment: as above
[4] = target: T4, rHuman CD44/Fc Chimera, CF (R&D Systems Cat#3660-CD) (human, UniProt P16070 21-220); experiment: as above
[5] = target: T5, rHuman HGF R/c-MET/Fc Chimera, CF (R&D Systems Cat#358-MT/CF) (human, UniProt P08581 25-932); experiment: as above
[6] = target: T6, Recombinant Human DLL4 (R&D Systems Cat#1506-D4/CF) (human, UniProt Q9NR61 27-524); experiment: MSD ECL multispot assay, antigen spotted on plate, Fab in solution; blank spot of this row 166
T6 construct: Bought recombinant protein; also called delta-like protein 4; rHuman DLL4

[7] = target: T7, rHuman Erythropoietin R/Fc Chimera, CF (R&D Systems Cat#963-ER) (human, UniProt P19235 25-250); experiment: as above
T7 construct: Bought recombinant protein; also called EPO R; EPO R/Fc; not shown: Fc of the bought chimera
T7 sequence (looked up): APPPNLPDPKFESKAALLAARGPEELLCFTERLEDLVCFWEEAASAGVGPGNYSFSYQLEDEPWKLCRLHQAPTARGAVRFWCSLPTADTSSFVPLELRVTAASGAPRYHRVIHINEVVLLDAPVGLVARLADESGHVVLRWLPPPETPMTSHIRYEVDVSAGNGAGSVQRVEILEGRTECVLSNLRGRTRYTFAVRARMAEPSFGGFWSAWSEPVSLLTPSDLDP

[8] = target: T8, rHuman Notch-1/Fc Chimera, CF (R&D Systems Cat#3647-TK) (human, UniProt P46531 19-526); experiment: as above
T8 construct: Bought recombinant protein; not shown: Fc of the bought chimera

[9] = target: T9, rHuman P-Cadherin/Fc Chimera, CF (R&D Systems Cat#861-PC) (human, UniProt P22223 108-654); experiment: as above
T9 construct: Bought recombinant protein; not shown: Fc of the bought chimera

[10] = target: T10, rHuman CD44/Fc Chimera, CF (R&D Systems Cat#3660-CD) (human, UniProt P16070 21-220); experiment: as above
T10 construct: Bought recombinant protein; not shown: Fc of the bought chimera

[11] = target: T11, rHuman IGF-1 sR (insulin-like growth factor-1 soluble receptor), CF (R&D Systems Cat#391-GR) (human, UniProt P08069 31-932); experiment: as above
T11 construct: Bought recombinant soluble receptor

[12] = target: T12, rHuman HGF R/c-MET/Fc Chimera, CF (R&D Systems Cat#358-MT/CF) (human, UniProt P08581 25-932); experiment: as above
T12 construct: Bought recombinant protein; also called HGF R/Fc; not shown: Fc of the bought chimera

[13] = target: T7, rHuman Erythropoietin R/Fc Chimera, CF …; experiment: MSD ECL multispot assay, antigen spotted on plate, Fab in solution; blank spot of this row 255
[14] = target: T8, rHuman Notch-1/Fc Chimera, CF (R&D …); experiment: as above
[15] = target: T9, rHuman P-Cadherin/Fc Chimera, CF (R&D …); experiment: as above
[16] = target: T10, rHuman CD44/Fc Chimera, CF (R&D Systems …); experiment: as above
[17] = target: T11, rHuman IGF-1 sR (insulin-like growth …); experiment: as above
[18] = target: T13, rHuman EGF R/Fc Chimera, CF (R&D Systems Cat#344-ER) (human, UniProt P00533 25-645); experiment: as above
T13 construct: Bought recombinant protein; not shown: Fc of the bought chimera

[19] = target: T14, rHuman ErbB2/Fc Chimera, CF (R&D Systems Cat#1129-ER) (human, UniProt P04626 23-652); experiment: as above
T14 construct: Bought recombinant protein; not shown: Fc of the bought chimera

[20] = target: T12, rHuman HGF R/c-MET/Fc Chimera, CF (R&D …); experiment: as above
[21] = target: T1, rHuman Notch-1/Fc Chimera, CF (R&D …); experiment: ECL Multispot (MSD), antigen spotted on plate, Fab in solution; blank spot 241
[22] = target: T2, rHuman P-Cadherin/Fc Chimera, CF (R&D …); experiment: as above
[23] = target: T3, rHuman Erythropoietin R/Fc Chimera, CF …; experiment: as above
[24] = target: T4, rHuman CD44/Fc Chimera, CF (R&D Systems …); experiment: as above
[25] = target: T1, rHuman Notch-1/Fc Chimera, CF (R&D …); experiment: ECL Multispot (MSD), antigen spotted on plate, Fab in solution; blank spot 169
[26] = target: T2, rHuman P-Cadherin/Fc Chimera, CF (R&D …); experiment: as above
[27] = target: T3, rHuman Erythropoietin R/Fc Chimera, CF …; experiment: as above
[28] = target: T4, rHuman CD44/Fc Chimera, CF (R&D Systems …); experiment: as above
[29] = target: T5, rHuman HGF R/c-MET/Fc Chimera, CF (R&D …); experiment: as above

B2: Fab VH1-46_IGHD6-6*01_IGHJ1*01 S102A/S103P/S104F/H111F (APFF) & L6_IGKJ1*01 S92P (Fab, V domains shown)
VH: QVQLVQSGAEVKKPGASVKVSCKASGYTFTSYYMHWVRQAPGQGLEWMGIINPSGGSTSYAQKFQGRVTMTRDTSTSTVYMELSSLRSEDTAVYYCAREEYAPFSAEYFQFWGQGTLVTVSS
VL: EIVLTQSPATLSLSPGERATLSCRASQSVSSYLAWYQQKPGQAPRLLIYDASNRATGIPARFSGSGSGTDFTLTISSLEPEDFAVYYCQQRPNWPPWTFGQGTKVEIKR
notes: Fab; also called APFF / S92P
ECL signal [6]: 446 | ECL signal [7]: 385 | ECL signal [8]: 328 | ECL signal [9]: 307 | ECL signal [10]: 292 | ECL signal [11]: 280 | ECL signal [12]: 256

B4: Fab VH1-46_IGHD6-6*01_IGHJ1*01 S102A/S103P/S104F/H111F (APFF) & L6_IGKJ1*01 W94M (Fab, V domains shown)
VH: QVQLVQSGAEVKKPGASVKVSCKASGYTFTSYYMHWVRQAPGQGLEWMGIINPSGGSTSYAQKFQGRVTMTRDTSTSTVYMELSSLRSEDTAVYYCAREEYAPFSAEYFQFWGQGTLVTVSS
VL: EIVLTQSPATLSLSPGERATLSCRASQSVSSYLAWYQQKPGQAPRLLIYDASNRATGIPARFSGSGSGTDFTLTISSLEPEDFAVYYCQQRSNMPPWTFGQGTKVEIKR
notes: also called APFF / W94M
ECL signal [21]: 321 | ECL signal [22]: 346 | ECL signal [23]: 435 | ECL signal [24]: 327

B5: Fab VH1-46_IGHD6-6*01_IGHJ1*01 S102A/S103P/S104F/H111F (APFF) & L6_IGKJ1*01 W94P (Fab, V domains shown)
VH: QVQLVQSGAEVKKPGASVKVSCKASGYTFTSYYMHWVRQAPGQGLEWMGIINPSGGSTSYAQKFQGRVTMTRDTSTSTVYMELSSLRSEDTAVYYCAREEYAPFSAEYFQFWGQGTLVTVSS
VL: EIVLTQSPATLSLSPGERATLSCRASQSVSSYLAWYQQKPGQAPRLLIYDASNRATGIPARFSGSGSGTDFTLTISSLEPEDFAVYYCQQRSNPPPWTFGQGTKVEIKR
notes: also called APFF / W94P
ECL signal [25]: 228 | ECL signal [26]: 268 | ECL signal [27]: 292 | ECL signal [28]: 241 | ECL signal [29]: 275

Further lines, results first:

ECL signal [1]: 346 | ECL signal [2]: 354 | ECL signal [3]: 391 | ECL signal [4]: 282 | ECL signal [5]: 242
B1: Fab VH1-46_IGHD6-6*01_IGHJ1*01 S102A/S103P/S104F/H111F (APFF) & L6_IGKJ1*01 S92P (Fab, V domains shown)
VH: QVQLVQSGAEVKKPGASVKVSCKASGYTFTSYYMHWVRQAPGQGLEWMGIINPSGGSTSYAQKFQGRVTMTRDTSTSTVYMELSSLRSEDTAVYYCAREEYAPFSAEYFQFWGQGTLVTVSS
VL: EIVLTQSPATLSLSPGERATLSCRASQSVSSYLAWYQQKPGQAPRLLIYDASNRATGIPARFSGSGSGTDFTLTISSLEPEDFAVYYCQQRPNWPPWTFGQGTKVEIKR
notes: also called APFF / S92P

ECL signal [13]: 330 | ECL signal [14]: 351 | ECL signal [15]: 340 | ECL signal [16]: 312 | ECL signal [17]: 246 | ECL signal [18]: 332 | ECL signal [19]: 282 | ECL signal [20]: 373
B3: Fab VH1-46_IGHD6-6*01_IGHJ1*01 S102A/S103P/S104F/H111F (APFF) & L6_IGKJ1*01 S92Q (Fab, V domains shown)
VH: QVQLVQSGAEVKKPGASVKVSCKASGYTFTSYYMHWVRQAPGQGLEWMGIINPSGGSTSYAQKFQGRVTMTRDTSTSTVYMELSSLRSEDTAVYYCAREEYAPFSAEYFQFWGQGTLVTVSS
VL: EIVLTQSPATLSLSPGERATLSCRASQSVSSYLAWYQQKPGQAPRLLIYDASNRATGIPARFSGSGSGTDFTLTISSLEPEDFAVYYCQQRQNWPPWTFGQGTKVEIKR
notes: Fab; also called APFF / S92Q
